These results are taken from IntAct's records for PubMed 17965270.

Sequences and labels used below:
B1: B-box zinc finger protein 21 (Arabidopsis thaliana (Mouse-ear cress)), Q9LQZ7 (parent)
chain: MKIRCDVCDKEEASVFCTADEASLCGGCDHQVHHANKLASKHLRFSLLYPSSSNTSSPLCDICQDKKALLFCQQDRAILCKDCDSSIHAANEHTKKHDRFLLTGVKLSATSSVYKPTSKSSSSSSSNQDFSVPGSSISNPPPLKKPLSAPPQSNKIQPFSKINGGDASVNQWGSTSTISEYLMDTLPGWHVEDFLDSSLPTYGFSKSGDDDGVLPYMEPEDDNNTKRNNNNNNNNNNNTVSLPSKNLGIWVPQIPQTLPSSYPNQYFSQDNNIQFGMYNKETSPEVVSFAPIQNMKQQGQNNKRWYDDGGFTVPQITPPPLSSNKKFRSFW
partner: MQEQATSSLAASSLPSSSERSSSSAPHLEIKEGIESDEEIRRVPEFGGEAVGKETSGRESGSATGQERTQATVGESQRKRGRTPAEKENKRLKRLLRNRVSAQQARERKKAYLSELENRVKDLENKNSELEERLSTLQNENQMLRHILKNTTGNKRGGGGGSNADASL

Variants of B1 are the subject of the assay. The note with it: with hy5_arath HY5, O24646.
Turning to MKIRCDVCDKEEASVFCTADEASLCGGCDHQVHHANKLASKHLRFSLLYPSSSNTSSPLCDICQDKKALLFCQQDRAILCKDCASSIHAANEHTKKHDRFLLTGVKLSATSSVYKPTSKSSSSSSSNQDFSVPGSSISNPPPLKKPLSAPPQSNKIQPFSKINGGDASVNQWGSTSTISEYLMDTLPGWHVEDFLDSSLPTYGFSKSGDDDGVLPYMEPEDDNNTKRNNNNNNNNNNNTVSLPSKNLGIWVPQIPQTLPSSYPNQYFSQDNNIQFGMYNKETSPEVVSFAPIQNMKQQGQNNKRWYDDGGFTVPQITPPPLSSNKKFRSFW [D84A], the “effect of a mutation on the interaction” value was “disrupting interaction”. As for MKIRCDVCDKEEASVFCTAAEASLCGGCDHQVHHANKLASKHLRFSLLYPSSSNTSSPLCDICQDKKALLFCQQDRAILCKDCDSSIHAANEHTKKHDRFLLTGVKLSATSSVYKPTSKSSSSSSSNQDFSVPGSSISNPPPLKKPLSAPPQSNKIQPFSKINGGDASVNQWGSTSTISEYLMDTLPGWHVEDFLDSSLPTYGFSKSGDDDGVLPYMEPEDDNNTKRNNNNNNNNNNNTVSLPSKNLGIWVPQIPQTLPSSYPNQYFSQDNNIQFGMYNKETSPEVVSFAPIQNMKQQGQNNKRWYDDGGFTVPQITPPPLSSNKKFRSFW [D20A], the “effect of a mutation on the interaction” value was “disrupting interaction”. With MKIRCDVCDKEEASVFCTADEASLCGGCDHQVHHANKLASKHLRFSLLYPSSSNTSSPLCDICQDKKALLFCQQARAILCKDCDSSIHAANEHTKKHDRFLLTGVKLSATSSVYKPTSKSSSSSSSNQDFSVPGSSISNPPPLKKPLSAPPQSNKIQPFSKINGGDASVNQWGSTSTISEYLMDTLPGWHVEDFLDSSLPTYGFSKSGDDDGVLPYMEPEDDNNTKRNNNNNNNNNNNTVSLPSKNLGIWVPQIPQTLPSSYPNQYFSQDNNIQFGMYNKETSPEVVSFAPIQNMKQQGQNNKRWYDDGGFTVPQITPPPLSSNKKFRSFW [D75A], the “effect of a mutation on the interaction” value was “disrupting interaction”.
